Square brackets hold non-standard residues; d marks the D form. Ends that are not written are not given here. Nle = CCCC[C@H](N)C(=O)O; Orn = NCCC[C@H](N)C(=O)O; Aib = CC(C)(N)C(=O)O
B1: P376 (cyclic PEGylated VPAC2 receptor peptide agonist) (peptide)
peptide: HSDAVFTENYT[Orn]LR[Aib]Q[Nle]AA[Orn]KYLNDL[Orn][Orn]GGPSSGAPPPC
modifications: not fully specified (residue 39); also: cyclic, bridge type and places not given here, PEGylated, site not placed
B2: P463 (cyclic PEGylated VPAC2 receptor peptide agonist) (peptide)
peptide: HSDAVFTENYT[Orn]LR[Aib]Q[Nle]AA[Orn]KYLNDL[Orn][Orn]GGPSSGAPPPC
modifications: also: cyclic by a side-chain bridge (lactam or disulfide), places not given here, PEGylated, site not given here
B3: P201 (cyclic PEGylated VPAC2 receptor peptide agonist) (peptide)
peptide: HSDAVFTENYTKLRKQ[Nle]AAKKYLNDLKKGGPSSGAPPPC
modifications: not fully specified (residue 39); ends and bridges not checked; also: further groups not given here

Legend:
human PAC1 = biological target: T1, human PAC1 (Homo sapiens, UniProt P41586); assay: Filter binding assay, 125I-labeled PACAP-27 tracer; conditions: membranes from cells transiently transfected with human PAC1; read-out: Human receptor binding IC50 PAC1
T1 construct: expressed in transfected cells; membranes)
T1 sequence (P41586 21-468): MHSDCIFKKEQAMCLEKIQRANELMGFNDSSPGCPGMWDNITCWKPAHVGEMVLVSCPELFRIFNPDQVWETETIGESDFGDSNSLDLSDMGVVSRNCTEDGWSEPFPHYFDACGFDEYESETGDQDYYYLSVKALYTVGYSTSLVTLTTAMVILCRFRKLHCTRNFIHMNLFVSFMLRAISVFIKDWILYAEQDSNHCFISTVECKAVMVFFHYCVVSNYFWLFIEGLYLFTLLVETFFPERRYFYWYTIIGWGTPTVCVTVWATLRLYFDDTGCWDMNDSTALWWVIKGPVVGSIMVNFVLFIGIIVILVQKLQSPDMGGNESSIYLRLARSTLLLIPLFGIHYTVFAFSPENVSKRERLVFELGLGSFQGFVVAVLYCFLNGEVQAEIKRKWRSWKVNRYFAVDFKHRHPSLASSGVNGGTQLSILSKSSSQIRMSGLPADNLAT
Experimental: (§1) In order to prepare the filter plates, the presoak solution is aspirated by vacuum filtration. The plates are flushed twice with 200 μL flush buffer. 200 μL blocking buffer is added to the filter plate. The filter plate is then incubated with 200 μL presoak solution for 1 hour at room temperature.
(§2) The assay plate is filled with 25 μL assay buffer, 25 μL membranes (2.5 μg) suspended in assay buffer, 25 μL compound (agonist) in assay buffer, and 25 μL tracer (about 40000 cpm) in assay buffer. The filled plate is incubated for 1 hour with shaking.
(§3) The transfer from assay plate to filter plate is conducted. The blocking buffer is aspirated by vacuum filtration and washed two times with flush buffer. 90 μL is transferred from the assay plate to the filter plate. The 90 μL transferred from assay plate is aspirated and washed three times with 200 μL flush buffer. The plastic support is removed. It is dried for 1 hour at 60° C. 30 μL Microscint is added. The count is performed.
(§4) Values reported are single results or the mean of two or more independent runs.

human VPAC1 = biological target: T2, human VPAC1 (Homo sapiens, UniProt P32241); assay: Filter binding assay, 125I-labeled VIP tracer; conditions: membranes from cells transiently transfected with human VPAC1; read-out: Human receptor binding IC50 VPAC1
T2 construct: expressed in transfected cells
T2 sequence (P32241 31-457): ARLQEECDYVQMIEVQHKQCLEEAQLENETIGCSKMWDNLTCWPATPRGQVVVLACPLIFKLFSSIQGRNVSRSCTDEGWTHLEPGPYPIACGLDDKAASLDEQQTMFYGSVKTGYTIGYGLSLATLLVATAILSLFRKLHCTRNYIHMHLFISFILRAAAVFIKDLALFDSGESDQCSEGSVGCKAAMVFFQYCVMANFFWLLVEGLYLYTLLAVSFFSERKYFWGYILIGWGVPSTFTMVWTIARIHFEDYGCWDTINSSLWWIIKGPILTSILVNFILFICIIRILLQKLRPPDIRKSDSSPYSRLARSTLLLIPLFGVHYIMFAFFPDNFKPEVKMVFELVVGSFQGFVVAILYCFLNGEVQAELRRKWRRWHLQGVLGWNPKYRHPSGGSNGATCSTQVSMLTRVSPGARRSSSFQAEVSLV
Experimental: as §1, §2, §3, §4

Normal Wistar rats = assay: Intravenous glucose tolerance test (IVGTT); assay type: in vivo, rat; conditions: 10 min between glucose and compound
Experimental: Intravenous glucose tolerance test (IVGTT): Normal Wistar rats are fasted overnight and are anesthetized prior to the experiment. A blood sampling catheter is inserted into the rats. The compound is given in the jugular vein. Blood samples are taken from the carotid artery. A blood sample is drawn immediately prior to the injection of glucose along with the compound. After the initial blood sample, glucose mixed with compound is injected intravenously (i.v.). Compound may also be injected intravenously or subcutaneously prior to the glucose challenge. A glucose challenge of 0.5 g/kg body weight is given, injecting a total of 1.5 mL vehicle with glucose and agonist per kg body weight. The peptide concentrations are varied to produce the desired dose in μg/kg. Blood samples are drawn at 2, 4, 6 and 10 minutes after giving glucose. The control group of animals receives the same vehicle along with glucose, but with no compound added. In some instances, a 30 minute post-glucose blood sample is drawn. Aprotinin is added to the blood sample (250-500 kIU/ml blood). The serum is then analyzed for glucose and insulin using standard methodologies.
The assay uses a formulated and calibrated peptide stock in PBS. Normally, this stock is a prediluted 100 μM stock. However, a more concentrated stock with approximately 1 mg agonist per mL is used. The specific concentration is always known. Variability in the maximal response is mostly due to variability in the vehicle dose.

[1] = rat, in vivo, sc, 0.1 mg/kg
Experimental: Healthy Fisher 344 rats (3 animals per group) are injected with 100 μg compound/kg (compound amount based on peptide content and dissolved in PBS buffer). […] PK parameters are then calculated using a model-independent method (WinNonlin Pro, Pharsight Corp., Mountain View, Calif., USA).

human VPAC2 receptor [2] = biological target: T3, human VPAC2 receptor (human, UniProt P41587 24-438); assay: cell-based or functional assay
T3 sequence (looked up): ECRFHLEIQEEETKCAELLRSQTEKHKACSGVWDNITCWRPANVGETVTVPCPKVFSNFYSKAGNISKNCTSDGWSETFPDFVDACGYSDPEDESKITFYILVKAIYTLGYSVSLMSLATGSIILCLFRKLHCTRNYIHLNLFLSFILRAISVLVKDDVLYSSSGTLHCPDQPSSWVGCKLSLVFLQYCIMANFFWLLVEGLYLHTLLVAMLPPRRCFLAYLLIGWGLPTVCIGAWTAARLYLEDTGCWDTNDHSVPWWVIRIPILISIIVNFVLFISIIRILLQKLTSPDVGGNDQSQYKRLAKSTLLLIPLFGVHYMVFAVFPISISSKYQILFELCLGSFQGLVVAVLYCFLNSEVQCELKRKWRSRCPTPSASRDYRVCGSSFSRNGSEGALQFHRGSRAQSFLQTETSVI

rat VPAC2 receptor = biological target: T4, rat VPAC2 receptor (rat, UniProt P35000 23-437); assay: cell-based or functional assay
T4 sequence (looked up): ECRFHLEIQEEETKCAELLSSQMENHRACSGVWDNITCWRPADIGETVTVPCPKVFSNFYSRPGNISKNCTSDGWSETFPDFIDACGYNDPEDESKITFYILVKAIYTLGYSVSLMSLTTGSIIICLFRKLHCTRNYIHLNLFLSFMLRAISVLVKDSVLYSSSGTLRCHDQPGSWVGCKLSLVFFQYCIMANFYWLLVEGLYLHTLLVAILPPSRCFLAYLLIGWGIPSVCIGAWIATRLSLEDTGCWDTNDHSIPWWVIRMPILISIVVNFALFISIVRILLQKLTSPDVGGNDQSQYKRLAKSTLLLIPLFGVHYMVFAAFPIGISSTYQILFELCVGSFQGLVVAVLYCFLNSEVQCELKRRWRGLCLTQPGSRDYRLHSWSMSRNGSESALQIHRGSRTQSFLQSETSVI

rat VPAC1 receptor = biological target: T5, rat VPAC1 receptor (rat, UniProt P30083 31-459); assay: cell-based or functional assay
T5 sequence (looked up): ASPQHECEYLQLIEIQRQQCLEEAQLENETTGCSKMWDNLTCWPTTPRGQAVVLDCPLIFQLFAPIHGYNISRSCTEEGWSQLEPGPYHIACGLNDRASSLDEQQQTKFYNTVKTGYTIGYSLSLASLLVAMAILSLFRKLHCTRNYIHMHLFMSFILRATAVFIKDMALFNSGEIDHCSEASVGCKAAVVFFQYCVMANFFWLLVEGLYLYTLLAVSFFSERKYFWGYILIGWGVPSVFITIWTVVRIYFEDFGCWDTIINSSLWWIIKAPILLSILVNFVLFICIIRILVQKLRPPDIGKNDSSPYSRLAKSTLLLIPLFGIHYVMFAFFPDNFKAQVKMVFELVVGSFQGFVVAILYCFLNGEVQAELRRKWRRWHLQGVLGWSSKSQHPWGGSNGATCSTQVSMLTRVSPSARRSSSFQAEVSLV

human VPAC2 receptor [3] = biological target: T3, human VPAC2 receptor; assay: filter binding assay, human VPAC2 membranes, displacement of 125I-VIP
Experimental: as §2, §3

| Molecule | IC50 (human PAC1) | IC50 (human VPAC1) | % increase AUC (insulin, 0-10 min after glucose) (Normal Wistar rats; Dose 0.5 μg/kg) | % increase AUC (insulin, 0-10 min after glucose) (Normal Wistar rats; Dose 5 μg/kg) | % increase AUC (insulin, 0-10 min after glucose) (Normal Wistar rats; Dose 15 μg/kg) | % increase AUC (insulin, 0-10 min after glucose) (Normal Wistar rats; Dose 50 μg/kg) | AUC0-last [1] | Cl/F [1] | Vd/F [1] | EC50 for cAMP generation, Alpha screen (human VPAC2 receptor [2]) | EC50 for cAMP generation, DiscoveRx, CHO-PO cells (rat VPAC2 receptor) | EC50 for cAMP generation, DiscoveRx, CHO-PO cells (rat VPAC1 receptor) | IC50 (human VPAC2 receptor [3]) |
| --- | --- | --- | --- | --- | --- | --- | --- | --- | --- | --- | --- | --- | --- |
| P257: cyclic PEGylated VPAC2 receptor peptide agonist (HSDAVFTENYTKL[Aib]KQ[Nle]AAKKYLNDLKKGGPSSGAPPPC; not fully specified (residue 39); ends and bridges not checked; also: cyclic, bridge type and places not given here, PEGylated, site not placed) [Agonist P257] | > 3000 nM | > 25000 nM | +14% | +114% | +158% | +230% | 4396 ng·h/mL | 0.383 mL/min/kg | 0.425 L/kg | – | – | – | – |
| HSDAVFTENYTKLR[Aib]Q[Nle]AAKKYLNDLK[Aib]KGGPSSGAPPPC (also: further groups not given here) [P348 (cyclic PEGylated VPAC2 receptor peptide agonist)] | – | – | – | – | – | – | – | – | – | 5.82 nM | 3.26 nM | 36.9 nM | 3.54 nM |
| B1 | – | – | – | – | – | – | – | – | – | 4.71 nM | 9.13 nM | 48.4 nM | 4.89 nM |
| HSDAVFTENYTKL[Aib]KQ[Nle]AAKKYLNDLKQGGPSSGAPPPC (ends and bridges not checked; also: further groups not given here) [P255 (cyclic PEGylated VPAC2 receptor peptide agonist)] | – | – | – | – | – | – | – | – | – | 111 nM | 51.4 nM | > 350 nM | > 100 nM |
| HSDAVFTENYTKL[Aib]KQ[Nle]AAKKYLNDLKKGGPSSGAPPPC (ends and bridges not checked; also: further groups not given here) [P257 (cyclic PEGylated VPAC2 receptor peptide agonist)] | – | – | – | – | – | – | – | – | – | 42.2 nM | 37.9 nM | > 1000 nM | 32.7 nM |
| B2 | – | – | – | – | – | – | – | – | – | 365 nM | 182 nM | 184 nM | > 100 nM |
| HSDAVFTENYTKLRKQ[Nle]AAKKYLNDLKQGGPSSGAPPPC (ends and bridges not checked; also: further groups not given here) [P239 (cyclic PEGylated VPAC2 receptor peptide agonist)] | – | – | – | – | – | – | – | – | – | 4.42 nM | 11.2 nM | 27.8 nM | 8.33 nM |
| B3 | – | – | – | – | – | – | – | – | – | 7.82 nM | 13.2 nM | 20.8 nM | 4.11 nM |

— patent US20090118167A1, “Selective Vpac2 Receptor Peptide Agonists” (Eli Lilly and Company Patent Division, priority 2004, published 2009)
